In patent publication US20130058952A1 (UNIVERSIT T DUISBERG ESSEN, published 2013):
Positions count from the first letter of the chain named.

B1: humanized mAb h2c-V2 (antibody, V domains shown)
VH: QVTLKESGPALVKPTQTLTLTCTFSGFSLSTSGMSVGWIRQPPGKALEWLAHIWWNNDKYYKPALKSRLTISKDTSKKQVVLTMTNMDPVDTATYYCARIYYGYRPYAMDYWGQGTLVTVSS
VL: DIVMTQTPLSLPVTPGEPASISCRSSQSIVHSNGNTYLEWYLQKPGQSPQLLIYKVSNRFSGVPDRFSGSGSGTDFTLKISRVEAEDVGVYYCFQGSHVPWSFGQGTKVEIKR
notes: also called hu2c-V2
B2: 2c-F(ab′)2 (other)
VH: QVTLKESGPGILLPSQTLSLTCSFSGFSLSTSGMSVGWIRQPSGKGLEWLGHIWWNNDKYYKPALKSRLTISKDTSNKQVFLKIASVVTADTATYYCARIYYGYRPYAMDYWGQGTSVTVSS
VL: B1 VL with I2V, V3L, T14S, P15L, E17D, P18Q, Q50K, V88L, Q105G, V109L
notes: also called F(ab′)-2-fragment; F(ab)2-fragment of mAb 2c
B3: murine monoclonal antibody (mAb) 2c (antibody, V domains shown)
VH: B2 VH
VL: B1 VL with I2V, V3L, T14S, P15L, E17D, P18Q, Q50K, V88L, Q105G, V109L
notes: also called 2c IgG; 2c-IgG
B4: 2c-Fab (Fab, V domains shown)
VH: B2 VH
VL: B1 VL with I2V, V3L, T14S, P15L, E17D, P18Q, Q50K, V88L, Q105G, V109L
notes: also called Fab-fragment of mAb 2c; monovalent 2c-Fab fragment
B5: humanized mAb h2c-V3 (antibody, V domains shown)
VH: B1 VH with V81F
VL: B1 VL
notes: also called hu2c-V3
B6: humanized mAb h2c-V4 (antibody, V domains shown)
VH: B1 VH with V81F
VL: B1 VL with I2V
notes: also called hu2c-V4
B7: humanized mAb h2c-V1 (antibody, V domains shown)
VH: B1 VH with K78N
VL: B1 VL
notes: also called hu2c-V1; mAb hu2c-V1

What was measured:
[1] = biological target: T1, glycoprotein B (gB) of HSV-1 strain F on infected Vero cells (Herpes simplex virus type 1, strain F, UniProt P06436 30-903); assay: cell-based or functional assay
[2] = biological target: T1, glycoprotein B (gB) of HSV-1 strain F …; assay: flow cytometry on HSV-infected Vero cells (FIG. 5)
[3] = biological target: T1, glycoprotein B (gB) of HSV-1 strain F …; assay: flow cytometry on HSV-1 F infected Vero cells
[4] = biological target: T1, glycoprotein B (gB) of HSV-1 strain F …; assay: flow cytometry, equilibrium binding to gB on HSV-1 F infected Vero cells, KD from nonlinear regression fit
[5] = biological target: T2, glycoprotein B (gB) of HSV-2 strain G on infected Vero cells (Herpes simplex virus type 2, strain G); assay: flow cytometry on HSV-2 G infected Vero cells
T2 construct: whole, on cells; also called HSV-2 G

[6] = biological target: T2, glycoprotein B (gB) of HSV-2 strain G …; assay: flow cytometry, equilibrium binding curves on HSV-2 G infected Vero cells
[7] = biological target: T3, truncated HSV-1 glycoprotein B gB(1-223) (Herpes simplex virus type 1, strain 17+, UniProt P10211 31-223); assay: indirect immunofluorescence on transfected COS-1 cells
T3 construct: range 31-223

[8] = biological target: T4, truncated HSV-1 glycoprotein B gB(1-130) (Herpes simplex virus type 1, strain 17+, UniProt P10211 31-130); assay: as above
T4 construct: range 31-130

[9] = biological target: T5, truncated HSV-1 glycoprotein B gB(436-642) (Herpes simplex virus type 1, strain 17+, UniProt P10211 436-642); assay: as above
T5 construct: range 436-642

[10] = biological target: designed 12-mer peptide PFYGYRE-G-FEDF; assay: cellulose-bound peptides probed with MAb 2c, chemiluminescence
[11] = biological target: T6, duotope 179YSQFMG184-βA-300FYGYRE305; assay: peptide and duotope microarray on glass slides, mAb 2c, fluorescence laser scan, signal intensity (LU)
T6 construct: also called YSQFMG-βA-FYGYRE

[12] = biological target: T7, duotope 186FED188-βA-βA-300FYGYRE305; assay: as above
T7 construct: also called FED-βA-βA-FYGYRE

[13] = biological target: T1, glycoprotein B (gB) of HSV-1 strain F …; assay: flow cytometry competition on HSV-1 infected Vero cells against 100 nM mAb 2c
[14] = biological target: T1, glycoprotein B (gB) of HSV-1 strain F …; assay: cell-based or functional assay; remark: listed apart in the source

Binder | concentration [nM] required for 50% neutralization of 100 TCID50 [1] [nM] | concentration [nM] required for 100% neutralization of 100 TCID50 [1] [nM] | EC50 (read off the curve) [3] [nM] | Kd [4] [nM] | other results
B1 | 5.1 | 15.6 | ~20 | 21.4 | fold lower affinity in comparison to mAb 2c [2]: 2 fold
B2 |  |  |  |  | EC50 (read off the curve) [5]: ~8 nM; Kd [6]: 8.8 nM
B3 |  |  |  |  | binding result [7]: no binding; binding result [8]: no binding; binding result [9]: no binding; binding result [10]: binds; binding result [11]: binds; binding result [12]: binds
B4 |  |  |  |  | EC50 (read off the curve) [5]: ~20 nM; Kd [6]: 17.7 nM
B5 | 3.3 | 7.8 | ~10 | 11.4 | IC50 (read off the curve) [13]: ~100 nM
B6 | 3.7 | 7.8 | ~10 | 13.7 | 
B7 | 3.7 | 7.8 | ~10 | 12.8 | inhibition of HSV-1 F cell-to-cell spread in Vero cell monolayers [14]: 500 nM
